Holding throughout (assay): flow cytometry on cells
The target in one experiment is T1, full-length Ste2p V49D (Saccharomyces cerevisiae, UniProt D6VTK4 1-431, V49D).
T1 sequence (looked up): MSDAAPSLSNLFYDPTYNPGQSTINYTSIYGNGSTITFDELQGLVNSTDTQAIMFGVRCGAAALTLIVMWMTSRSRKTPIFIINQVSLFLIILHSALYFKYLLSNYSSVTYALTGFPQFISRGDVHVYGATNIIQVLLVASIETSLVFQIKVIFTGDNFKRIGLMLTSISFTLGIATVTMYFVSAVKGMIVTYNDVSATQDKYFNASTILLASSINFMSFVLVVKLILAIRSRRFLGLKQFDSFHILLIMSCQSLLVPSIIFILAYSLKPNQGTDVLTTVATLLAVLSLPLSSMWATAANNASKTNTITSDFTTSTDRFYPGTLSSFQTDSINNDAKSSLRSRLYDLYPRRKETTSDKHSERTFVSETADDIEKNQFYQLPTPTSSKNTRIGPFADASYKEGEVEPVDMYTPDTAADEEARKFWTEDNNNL

Experiment [1] has as its target T2, C-terminally truncated Ste2p V49D (Saccharomyces cerevisiae, UniProt D6VTK4 1-303, V49D).
T2 sequence (looked up): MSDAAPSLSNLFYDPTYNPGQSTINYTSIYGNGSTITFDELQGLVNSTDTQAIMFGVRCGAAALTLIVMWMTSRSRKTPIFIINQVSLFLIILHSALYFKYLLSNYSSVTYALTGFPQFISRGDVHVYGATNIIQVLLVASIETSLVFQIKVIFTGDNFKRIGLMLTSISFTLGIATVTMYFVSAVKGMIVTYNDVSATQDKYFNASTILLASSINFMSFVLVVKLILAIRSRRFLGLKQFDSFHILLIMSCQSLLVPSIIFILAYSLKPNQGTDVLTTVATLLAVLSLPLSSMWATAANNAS

Experiment [2] deals with T3, C-terminally truncated wild-type Ste2p (Saccharomyces cerevisiae, UniProt D6VTK4 1-303).
T3 sequence (looked up): T2 sequence (looked up) with D49V

In experiment [3] the target is T4, C-terminally truncated Ste2p F38Y (Saccharomyces cerevisiae, UniProt D6VTK4 1-303, F38Y).
T4 sequence (looked up): T2 sequence (looked up) with F38Y, D49V

In a further experiment the target is T5, full-length Ste2p S95Y (Saccharomyces cerevisiae, UniProt D6VTK4 1-431, S95Y).
T5 sequence (looked up): T1 sequence (looked up) with D49V, S95Y

Experiment [4] deals with T6, C-terminally truncated Ste2p S104Y (Saccharomyces cerevisiae, UniProt D6VTK4 1-303, S104Y).
T6 sequence (looked up): T2 sequence (looked up) with D49V, S104Y

Positions count from the first letter of the chain named.

B1: [K^7(NBD),Nle^12] α-factor (peptide)
chain: WHWLQLKPGQPMY
modifications: NBD (7-nitrobenz-2-oxa-1,3-diazol-4-yl) conjugated to the lysine at position 7; norleucine at position 12 in place of methionine
For B1, the dissociation constant (Kd) with full-length Ste2p V49D worked out at 5.3 ± 2.3 nM; in experiment [1], 23 ± 3.3 nM; in experiment [2], 19 ± 3.8 nM; in experiment [3], 59 ± 11 nM; with full-length Ste2p S95Y it was 2.1 ± 1.5 nM; in experiment [4] it was 12 ± 3.4 nM.

Source of the values: article PMC4405178 (Biochemistry, 2015).
